{
  "source": "patent US20150352207A1",
  "about": "“USE OF ANTIBODIES AGAINST ICAM-1 IN COMBINATION WITH AN ANTI CANCER DRUG IN THE TREATMENT OF PATIENTS” (BIOINVENT INTERNATIONAL AB, priority 2013, published 2015)",
  "key": {"Daudi cells": {"test_system": "Daudi cells", "assay": "Subcutaneous scid/Daudi non-Hodgkin lymphoma xenograft", "format": "in vivo, scid mice", "settings": "twice weekly i.p. from day 1"}, "EJM myeloma cells": {"test_system": "EJM myeloma cells", "assay": "Subcutaneous scid myeloma xenograft, EJM", "format": "in vivo, scid mice", "settings": "2 mg/kg twice weekly", "protocol": "(§1) Antibody treatment with 2 mg/kg B11 or control IgG1 was started at Day 1 and was continued on a twice-weekly intraperitoneal dosing regimen. Mice were sacrificed when tumor sizes reached the ethical limit."}, "OPM-2 myeloma cells": {"test_system": "OPM-2 myeloma cells", "assay": "Subcutaneous scid myeloma xenograft, OPM-2 (ICAM-1 negative)", "format": "in vivo, scid mice", "settings": "2 mg/kg twice weekly", "protocol": "as §1"}, "mouse FcγRIV": {"molecular_target": "T1, mouse FcγRIV (Mus musculus, UniProt A0A0B4J1G0)", "T1 construct": "made in house; host or cells: HEK293E (transient, adherent)", "T1 sequence (A0A0B4J1G0 21-249)": "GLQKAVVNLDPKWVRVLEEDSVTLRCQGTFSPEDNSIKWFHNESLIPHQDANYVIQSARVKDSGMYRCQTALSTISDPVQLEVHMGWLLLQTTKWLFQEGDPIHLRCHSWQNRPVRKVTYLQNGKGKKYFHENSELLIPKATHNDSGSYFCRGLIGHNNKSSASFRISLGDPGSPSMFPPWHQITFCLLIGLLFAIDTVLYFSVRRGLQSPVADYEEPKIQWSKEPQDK", "assay": "B11 isotype variant binding to FcγR (Biacore), mouse FcγRIV", "protocol": "(§2) His-tagged human FcγRIIIa or mouse FcγRIV were expressed transient in adherent HEK293E cells, purified using Ni-NTA chromatography and characterized using SDS-PAGE and/or Biacore. Surface plasmon resonance (SPR) measurements were performed using a Biacore 3000 instrument. Goat α-human-F(ab)′2 F(ab)′2 fragment (Jackson laboratories) was immobilised with a CM-5 chip using a standard amine coupling protocol. IgG1 B11, IgG4 B11, or 297Q B11 were diluted to 15 and 60 μg/mL respectively and added to the surface at […] for 3 min. His tagged human FcγRIIIa or mouse FcγRIV were pre-incubated with an α-HIS antibody (R&D Systems) at a 2:1 molar ratio before addition to the chip surface, 30 μL/min, 1 min. After each cycle the surface was regenerated twice with glycine buffer pH 1.7."}, "human FcγRIIIa": {"molecular_target": "T2, human FcγRIIIa (Homo sapiens, UniProt P08637)", "T2 construct": "made in house; host or cells: HEK293E (transient, adherent)", "T2 sequence (P08637 17-254)": "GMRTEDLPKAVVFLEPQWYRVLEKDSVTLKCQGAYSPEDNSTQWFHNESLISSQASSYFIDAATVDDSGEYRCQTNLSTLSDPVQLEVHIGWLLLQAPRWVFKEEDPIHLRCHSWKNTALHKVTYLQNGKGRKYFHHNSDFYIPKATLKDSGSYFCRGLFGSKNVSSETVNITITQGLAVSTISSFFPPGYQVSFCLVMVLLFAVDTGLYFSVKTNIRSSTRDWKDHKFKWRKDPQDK", "assay": "B11 isotype variant binding to FcγR (Biacore), human FcγRIIIa", "protocol": "as §2"}, "[1]": {"test_system": "ICAM-1 expressing tumor cell lines", "assay": "Complement-dependent cytotoxicity (CDC) in tumor cell lines", "format": "cell-based", "settings": "panel of ICAM-1 expressing tumor cell lines", "protocol": "(§3) Target cells were harvested and incubated in RPMI medium with antibodies at 5 μg/mL or at titrated concentrations between 0.01-100 μg/mL for 60 min on ice. Cells were thereafter washed and resuspended in cold medium before dispension into flow cytometry tubes. Treatments were performed in triplicates. Human serum, normal or heat-inactivated, (Sigma, Sweden) was added to tubes and the samples were incubated for 2 h at 37° C. After completed incubation ToPo-Pro-3 was added at a final concentration of 0.3 μM and cells were analyzed for membrane permeabilization using flow cytometry."}, "Daudi lymphoma cells": {"test_system": "Daudi lymphoma cells", "assay": "Programmed cell death (PCD) assay, Daudi cells", "format": "cell-based", "protocol": "(§4) Target cells were seeded in 96-well culture plates at a density of 2×10^6 cells/mL culture medium. Titrated concentrations of IgG1 B11 or different negative and positive control antibodies were added to the cells, in the absence or presence of anti-human Fab fragment (Jackson ImmunoResearch) for cross-linking. The cells were then incubated for 16 hours at 37° C. in a humidified atmosphere of 5% CO2. The cells were harvested and stained for Annexin V-488/Propidium Iodide (Invitrogen, Sweden) and analysed using flow cytometer (FACS Calibur, BD Bioscience)."}, "[2]": {"test_system": "HUVEC and HMVEC endothelial cells", "assay": "PCD in normal ICAM-1 expressing endothelial cells", "format": "cell-based", "settings": "resting or activated HUVEC/HMVEC", "protocol": "as §4"}, "[3]": {"test_system": "HUVEC, HMVEC or peripheral blood B cells", "assay": "ADCC of normal ICAM-1 expressing cells", "format": "cell-based", "excerpt": "Buffy coats from human donors (ordered through Blodcentralen, Lund) were used to isolate peripheral blood mononuclear cells (PBMCs), and subsequently NK cells. Briefly, peripheral blood components were separated using Ficoll Paque PLUS (Amersham Biosciences, Sweden) in LeucoSep tubes (Greiner Bio-One). The PBMC fraction was removed and thoroughly washed in ice-cold DPBS (Invitrogen), before magnetic labeling and separation of the NK cell population using positive or negative NK cell isolation kits and MACS LS columns (Miltenyi Biotec). The purity of the obtained NK cell fractions was analyzed using flow cytometry, after staining with α-CD56 antibodies (BD Biosciences). Target cells were harvested, and incubated in medium with or without the respective antibodies (2 μg/mL) for 60 min on ice. Cells were thereafter washed and resuspended in cold medium before dispension into FACS tubes. Subsequently, isolated NK cells were diluted in ADCC medium and dispensed together with the respective antibody-coated target cells at varying effector/target cell ratios (40:1, 20:1, 5:1 and 1:1). All experiments were performed in triplicates. After completed incubation ToPo-Pro-3 dye and counting beads (Invitrogen) were added and cells were analyzed for membrane permeabilization using flow cytometry."}, "[4]": {"test_system": "HUVEC, HMVEC or peripheral blood B cells", "assay": "CDC of normal ICAM-1 expressing cells", "format": "cell-based", "protocol": "as §3"}, "PBMC [5]": {"test_system": "PBMC", "assay": "PBMC cytokine release", "format": "cell-based", "from_the_text": "(§5) We next assessed IgG B11 effects on PBMC cytokine release and cell proliferation. In order to maximize chances of identifying any PBMC agonistic properties of IgG B11, we used two different antibody coating-protocols where antibody is hyper-cross-linked as previously described (62)."}, "PBMC [6]": {"test_system": "PBMC", "assay": "PBMC / T cell proliferation", "format": "cell-based", "settings": "immobilised antibody or in solution", "from_the_text": "as §5"}, "[7]": {"assay": "Serum antibody levels of treated xenografted mice (ELISA)", "format": "in vivo", "settings": "serum at end of experimentation", "protocol": "We next performed a dose-titration experiment to establish IgG B11 in vivo potency and the minimal dose achieving maximal anti-tumor activity, using the scid/ARH-77 model system. […] Mouse serum antibody trough concentrations were determined by ELISA at the end of experimentation. Trough antibody concentrations were then plotted against percent of maximal in vivo anti-tumour activity, and against percent of maximal ICAM-1 receptor occupancy and tumour cell PCD at corresponding antibody concentrations in vitro (FIGS. 3C, 3D, 3E, 3F and 3G). Strikingly, a near perfect correlation between antibody concentration and in vitro tumour cell receptor occupancy, in vitro tumor cell PCD, and in vivo anti-tumour activity was observed, consistent with ICAM-1 dependent direct cell cytotoxicity underlying in vivo anti-tumour activity."}, "recombinant human ICAM-1": {"molecular_target": "recombinant human ICAM-1 (Homo sapiens, UniProt P05362)", "sequence (P05362 28-532)": "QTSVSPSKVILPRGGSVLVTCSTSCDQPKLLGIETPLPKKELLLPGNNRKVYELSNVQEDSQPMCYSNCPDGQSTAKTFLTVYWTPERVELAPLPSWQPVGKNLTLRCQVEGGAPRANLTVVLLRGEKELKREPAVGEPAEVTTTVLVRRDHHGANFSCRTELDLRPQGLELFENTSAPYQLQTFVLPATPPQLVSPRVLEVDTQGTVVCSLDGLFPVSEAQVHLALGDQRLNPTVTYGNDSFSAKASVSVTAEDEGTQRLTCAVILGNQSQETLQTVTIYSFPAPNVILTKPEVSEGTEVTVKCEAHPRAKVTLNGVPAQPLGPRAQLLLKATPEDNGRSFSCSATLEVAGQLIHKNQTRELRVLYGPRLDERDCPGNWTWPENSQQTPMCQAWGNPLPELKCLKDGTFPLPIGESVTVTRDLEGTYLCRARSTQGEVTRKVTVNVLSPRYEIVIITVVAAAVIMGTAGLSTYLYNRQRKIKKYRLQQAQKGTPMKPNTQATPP", "assay": "ELISA binding to recombinant human ICAM-1, ICAM-2 or ICAM-3", "settings": "versus ICAM-2, ICAM-3"}, "ARH-77 xenograft tissues": {"test_system": "ARH-77 xenograft tissues", "settings": "compared to control IgG, untreated and rituximab-treated mice", "description": "(A) ARH-77 cells were injected subcutaneously into the left flank of SCID mice (n=8 per group). Mice were treated with the different B11 isotypes twice weekly. […] Statistical significance was calculated relative to control antibody treatment using Kruskal-Wallis Test (Nonparametric ANOVA) with Dunn's Multiple Comparisons Test. Statistical significance was considered for *p<0.05, **p<0.01, and ***p<0.001."}, "ARH-77 tumors": {"test_system": "ARH-77 tumors", "assay": "Advanced (established, palpable tumors) scid/ARH-77 xenograft model", "settings": "IgG B11 effective even at 100-fold lower dose (0.2 mg/kg) than rituximab", "description": "Mice were anaesthetized with a mixture of sevofluran and oxygen prior to myeloma cell inoculation and 1-5×10^6 myeloma cells were then subcutaneously injected in a volume of 100 μl into the left flank. Treatment with antibodies by intraperitonial (i.p.) injections was started either the day after cell inoculation (prophylactic model) or when tumors reached a size of approximately 100 mm^3 (established model). Antibodies were administrated in PBS in a total volume of 200 μL. Treatment with PBS or isotype control was used as control. Tumors were measured with a digital calliper and the tumor volumes were calculated according to formula: width^2×length×0.52. Animals were sacrificed when the tumor sizes reached the ethical limit of 1.5 cm. Surviving mice were sacrificed after a maximum of 5 months. Blood samples collected from the vena cava were centrifuged at 2500 g for 15 min to obtain serum and the samples were stored at −20° C. Tumors were removed for immunohistochemistry, snap frozen and were kept at −85° C."}},
  "note": "Entries after “also recorded” stand apart in the source; their conditions may differ. Read-outs that look alike come from different tables or passages of the source.",
  "data": [
    {"molecule": "IgG B11: novel human ICAM-1 antibody targeting the B11 epitope, isolated from the naïve antibody library n-CoDeR (antibody, V domains shown, B11 antibody variable H region; B11 antibody variable L region) VH: EVQLLESGGGLVQPGGSLRLSCAASGFTFSNAWMSWVRQAPGKGLEWVAFIWYDGSNKYYADSVKGRFTISRDNSKNTLYLQMNSLRAEDTAVYYCARYSGWYFDYWGQGTLVTVSS VL: QSVLTQPPSASGTPGQRVTISCTGSSSNIGAGYDVHWYQQLPGTAPKLLIYDNNNRPSGVPDRFSGSKSGTSASLAISGLRSEDEADYYCQSYDSSLSAWLFGGGTKLTVLG", "values": [
      {"measurement": "survival of tumor bearing mice", "setting": "Daudi cells", "value": "prolonged survival of tumor bearing mice"},
      {"measurement": "tumor growth", "setting": "Daudi cells", "value": "significantly and equally efficaciously compared to rituximab, prevented tumor growth"},
      {"measurement": "reduction of myeloma tumor growth", "setting": "EJM myeloma cells", "value": 98, "unit": "%"},
      {"measurement": "effect on tumor growth", "setting": "OPM-2 myeloma cells", "value": "no effect on tumor growth; also recorded: did not affect tumor growth"},
      {"measurement": "binding to murine FcγRIV", "setting": "mouse FcγRIV", "value": "strong binding"},
      {"measurement": "binding to human FcγRIIIa", "setting": "human FcγRIIIa", "value": "bound to human FcγRIIIa"},
      {"measurement": "induction of CDC", "setting": "[1]", "value": "did not induce CDC"},
      {"measurement": "PCD-induction", "setting": "Daudi lymphoma cells; ICAM-1 expressing Daudi lymphoma cells", "value": "dose dependent PCD-induction"},
      {"measurement": "programmed cell death by immobilised antibody", "setting": "Daudi lymphoma cells; antibody immobilised by either coating protocol, data not shown", "value": "induced programmed cell death"},
      {"measurement": "programmed cell death of normal endothelial cells", "setting": "[2]", "value": "did not, however, induce PCD"},
      {"measurement": "ADCC of normal cells", "setting": "[3]", "value": "did not confer ADCC or CDC"},
      {"measurement": "ADCC of normal cells", "setting": "[3]; listed as B11", "value": "not significantly affected"},
      {"measurement": "CDC of normal cells", "setting": "[4]", "value": "did not confer ADCC or CDC"},
      {"measurement": "CDC of normal cells", "setting": "[4]; listed as B11", "value": "not significantly affected"},
      {"measurement": "PBMC cytokine release", "setting": "PBMC [5]; antibody in solution, resting or lipopolysaccharide pre-stimulated PBMCs", "value": "did not induce or enhance cytokine release"},
      {"measurement": "PBMC cytokine release", "setting": "PBMC [5]; immobilised antibody, or in solution with or without cross-linking reagent", "value": "did not, however, induce PBMC cytokine release"},
      {"measurement": "PBMC cytokine release", "setting": "PBMC [5]; immobilised antibody, or in solution with or without cross-linking reagent, listed as B11", "value": "not significantly affected"},
      {"measurement": "cell proliferation", "setting": "PBMC [6]", "value": "did not induce cell proliferation"},
      {"measurement": "cell proliferation", "setting": "PBMC [6]; listed as B11", "value": "not significantly affected"},
      {"measurement": "In vivo IgG Levels", "setting": "[7]; Dose 0.02 mg/kg", "value": "0.06 ± 0.02", "unit": "µg/mL"},
      {"measurement": "In vivo IgG Levels", "setting": "[7]; Dose 0.2 mg/kg", "value": "1.2 ± 0.4", "unit": "µg/mL"},
      {"measurement": "In vivo IgG Levels", "setting": "[7]; Dose 2 mg/kg", "value": "20 ± 2.9", "unit": "µg/mL"},
      {"measurement": "specificity for ICAM-1", "setting": "recombinant human ICAM-1", "value": "high specificity"},
      {"measurement": "F4/80 positive host effector cell (macrophage) infiltration of tumor tissue", "setting": "ARH-77 xenograft tissues", "value": "massive influx"},
      {"measurement": "F4/80 positive host effector cell (macrophage) infiltration of tumor tissue", "setting": "ARH-77 xenograft tissues; listed as B11", "value": "significantly increased"},
      {"measurement": "animal survival", "setting": "ARH-77 tumors", "value": "prolonged animal survival"},
      {"measurement": "tumor growth", "setting": "ARH-77 tumors", "value": "significantly prevented tumor growth"}
    ]}
  ]
}
